Measured values taken from paper PMC3808276 (2013).

How the values were obtained:
CXCL11 = biological target: T1, CXCL11 (Homo sapiens, UniProt O14625); assay: ELISA
T1 chain: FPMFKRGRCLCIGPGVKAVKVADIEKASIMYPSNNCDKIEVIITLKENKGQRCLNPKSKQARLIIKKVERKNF

CXCL10 = CXCL10 (Homo sapiens, UniProt P02778); assay: ELISA
Chain of CXCL10 (P02778 22-94): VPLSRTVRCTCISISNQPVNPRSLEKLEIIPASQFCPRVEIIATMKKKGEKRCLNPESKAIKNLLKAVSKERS

B1: Fg β15-66 15-66 (protein)
chain: MKHLLLLLLCVFLVKSQGVNDNEEGFFSARGHRPLDKKREEAPSLRPAPPPI
Kd (CXCL11): 67 nM | Kd (CXCL10): 68 nM
